Residue numbers refer to the chain shown, from its start. Names may count otherwise.
T1: EsCas13d, nuclease-dead (Eubacterium siraeum, UniProt B0MS50, R295A;H300A;R849A;H854A)
T1 sequence: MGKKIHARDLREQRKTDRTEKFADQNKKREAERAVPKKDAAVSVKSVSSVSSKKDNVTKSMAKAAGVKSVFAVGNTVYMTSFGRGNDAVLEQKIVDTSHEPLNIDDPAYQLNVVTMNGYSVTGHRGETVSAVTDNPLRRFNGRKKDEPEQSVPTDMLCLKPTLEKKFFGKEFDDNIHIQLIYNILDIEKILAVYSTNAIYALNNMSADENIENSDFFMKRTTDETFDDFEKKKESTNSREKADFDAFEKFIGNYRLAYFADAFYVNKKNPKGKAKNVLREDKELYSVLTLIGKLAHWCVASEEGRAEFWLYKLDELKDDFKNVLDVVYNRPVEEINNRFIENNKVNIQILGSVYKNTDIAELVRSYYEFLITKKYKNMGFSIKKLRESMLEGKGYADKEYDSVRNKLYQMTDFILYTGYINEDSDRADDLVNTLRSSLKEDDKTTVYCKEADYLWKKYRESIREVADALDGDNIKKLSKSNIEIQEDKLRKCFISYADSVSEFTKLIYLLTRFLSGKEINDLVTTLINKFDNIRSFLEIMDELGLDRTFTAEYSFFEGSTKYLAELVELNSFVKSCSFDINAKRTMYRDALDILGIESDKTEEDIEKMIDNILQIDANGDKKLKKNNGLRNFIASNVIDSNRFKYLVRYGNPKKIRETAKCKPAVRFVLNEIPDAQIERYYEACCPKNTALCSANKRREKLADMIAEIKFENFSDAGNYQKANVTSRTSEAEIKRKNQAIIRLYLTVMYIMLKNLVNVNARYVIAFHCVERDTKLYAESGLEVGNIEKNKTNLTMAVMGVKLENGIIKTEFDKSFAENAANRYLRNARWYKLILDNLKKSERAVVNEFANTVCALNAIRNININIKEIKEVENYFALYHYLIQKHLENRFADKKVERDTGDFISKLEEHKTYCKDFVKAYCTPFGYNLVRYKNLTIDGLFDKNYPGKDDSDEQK

B1: target 1 MT 5'PFS CUU 3'PFS CAG (mixed)
RNA 1: CACCCGUGCAAAAAUGCAGGGGUCUAAAACUGAGCGGAUAACCUCUCUAUGG
RNA 2: GGGAAUGGAUCCACAUCUACGAAUUCCUUCCAUAGAGAGGUUAUCCGCUCACAGAGAUCGGAAGAGCACACGU
B2: target 1 MT 5'PFS GAA 3'PFS ACG (mixed)
RNA 1: B1 RNA 1
RNA 2: B1 RNA 2 with C27G, U28A, U29A, C52A, A53C
B3: target 1 MT 5'PFS GAA 3'PFS ACC (mixed)
RNA 1: B1 RNA 1
RNA 2: B1 RNA 2 with C27G, U28A, U29A, C52A, A53C, G54C
B4: target 1 insA 3' of 8,insC 3' of 1 (mixed)
RNA 1: B1 RNA 1
RNA 2: GGGAAUGGAUCCACAUCUACGAAUUCGUACCAUAGAGAGGUUAUACCGCUCACCCGAGAUCGGAAGAGCACACGU
B5: target 1 MT 5'PFS GCA 3'PFS GGA (mixed)
RNA 1: B1 RNA 1
RNA 2: B1 RNA 2 with C27G, U28C, U29A, C52G, A53G, G54A
B6: target 1 MT 5'PFS GGG 3'PFS AUG (mixed)
RNA 1: B1 RNA 1
RNA 2: B1 RNA 2 with C27G, U28G, U29G, C52A, A53U
B7: target 1 MT 5'PFS GGG 3'PFS AUA (mixed)
RNA 1: B1 RNA 1
RNA 2: B1 RNA 2 with C27G, U28G, U29G, C52A, A53U, G54A
B8: target 1 MT 5'PFS GGG 3'PFS AUC (mixed)
RNA 1: B1 RNA 1
RNA 2: B1 RNA 2 with C27G, U28G, U29G, C52A, A53U, G54C
B9: target 1 MT 5'PFS GAA 3'PFS ACU (mixed)
RNA 1: B1 RNA 1
RNA 2: B1 RNA 2 with C27G, U28A, U29A, C52A, A53C, G54U
B10: target 1 MT 5'PFS UAA 3'PFS CCG (mixed)
RNA 1: B1 RNA 1
RNA 2: B1 RNA 2 with C27U, U28A, U29A, A53C
B11: target 1 MT 5'PFS GGA 3'PFS CGA (mixed)
RNA 1: B1 RNA 1
RNA 2: B1 RNA 2 with C27G, U28G, U29A, A53G, G54A
B12: target 1 MT 5'PFS GGA 3'PFS CGC (mixed)
RNA 1: B1 RNA 1
RNA 2: B1 RNA 2 with C27G, U28G, U29A, A53G, G54C
B13: target 1 MT 5'PFS GGA 3'PFS CGG (mixed)
RNA 1: B1 RNA 1
RNA 2: B1 RNA 2 with C27G, U28G, U29A, A53G
B14: target 1 MT 5'PFS UUA 3'PFS UGA (mixed)
RNA 1: B1 RNA 1
RNA 2: B1 RNA 2 with C27U, U29A, C52U, A53G, G54A
B15: target 1 insC 3' of 17,insU 3' of 4 (mixed)
RNA 1: B1 RNA 1
RNA 2: GGGAAUGGAUCCACAUCUACGAAUUCGUACCAUAGCAGAGGUUAUCCGCUUCACCGAGAUCGGAAGAGCACACGU
B16: target 1 MT 5'PFS AGG 3'PFS UCG (mixed)
RNA 1: B1 RNA 1
RNA 2: B1 RNA 2 with C27A, U28G, U29G, C52U, A53C
B17: target 1 MT 5'PFS UAA 3'PFS CCU (mixed)
RNA 1: B1 RNA 1
RNA 2: B1 RNA 2 with C27U, U28A, U29A, A53C, G54U
B18: target 1 MT 5'PFS AGG 3'PFS UCU (mixed)
RNA 1: B1 RNA 1
RNA 2: B1 RNA 2 with C27A, U28G, U29G, C52U, A53C, G54U
B19: target 1 MT 5'PFS GUA 3'PFS AUU (mixed)
RNA 1: B1 RNA 1
RNA 2: B1 RNA 2 with C27G, U29A, C52A, A53U, G54U
B20: target 1 MT 5'PFS ACG 3'PFS UCU (mixed)
RNA 1: B1 RNA 1
RNA 2: B1 RNA 2 with C27A, U28C, U29G, C52U, A53C, G54U
B21: target 1 MT 5'PFS GUA 3'PFS AUA (mixed)
RNA 1: B1 RNA 1
RNA 2: B1 RNA 2 with C27G, U29A, C52A, A53U, G54A
B22: target 1 MT 5'PFS CCU 3'PFS UUG (mixed)
RNA 1: B1 RNA 1
RNA 2: B1 RNA 2 with U28C, C52U, A53U
B23: target 1 MT 5'PFS GUA 3'PFS AUC (mixed)
RNA 1: B1 RNA 1
RNA 2: B1 RNA 2 with C27G, U29A, C52A, A53U, G54C
B24: target 1 MT 5'PFS CCU 3'PFS UUA (mixed)
RNA 1: B1 RNA 1
RNA 2: B1 RNA 2 with U28C, C52U, A53U, G54A
B25: target 1 MT 5'PFS CCU 3'PFS UUC (mixed)
RNA 1: B1 RNA 1
RNA 2: B1 RNA 2 with U28C, C52U, A53U, G54C
B26: target 1 C6U,G12C (mixed)
RNA 1: B1 RNA 1
RNA 2: B1 RNA 2 with C27G, U29A, G40C, C46U, A53C
B27: target 1 MT 5'PFS GUA 3'PFS AUG (mixed)
RNA 1: B1 RNA 1
RNA 2: B1 RNA 2 with C27G, U29A, C52A, A53U
B28: target 1 MT 5'PFS ACG 3'PFS UCG (mixed)
RNA 1: B1 RNA 1
RNA 2: B1 RNA 2 with C27A, U28C, U29G, C52U, A53C
B29: target 1 MT 5'PFS ACG 3'PFS UCC (mixed)
RNA 1: B1 RNA 1
RNA 2: B1 RNA 2 with C27A, U28C, U29G, C52U, A53C, G54C
B30: target 1 MT 5'PFS CUU 3'PFS UUC (mixed)
RNA 1: B1 RNA 1
RNA 2: B1 RNA 2 with C52U, A53U, G54C
B31: target 1 MT 5'PFS CUU 3'PFS UUA (mixed)
RNA 1: B1 RNA 1
RNA 2: B1 RNA 2 with C52U, A53U, G54A
B32: target 1 MT 5'PFS CUU 3'PFS UUG (mixed)
RNA 1: B1 RNA 1
RNA 2: B1 RNA 2 with C52U, A53U
B33: target 1 MT 5'PFS AGA 3'PFS UUG (mixed)
RNA 1: B1 RNA 1
RNA 2: B1 RNA 2 with C27A, U28G, U29A, C52U, A53U
B34: target 1 MT 5'PFS AGA 3'PFS UUA (mixed)
RNA 1: B1 RNA 1
RNA 2: B1 RNA 2 with C27A, U28G, U29A, C52U, A53U, G54A
B35: target 1 MT 5'PFS AGA 3'PFS UUC (mixed)
RNA 1: B1 RNA 1
RNA 2: B1 RNA 2 with C27A, U28G, U29A, C52U, A53U, G54C
B36: target 1 MT 5'PFS AGA 3'PFS UUU (mixed)
RNA 1: B1 RNA 1
RNA 2: B1 RNA 2 with C27A, U28G, U29A, C52U, A53U, G54U
B37: target 1 U8A,U19C (mixed)
RNA 1: B1 RNA 1
RNA 2: B1 RNA 2 with C27G, U29A, U33C, U44A, A53C
B38: target 1 MT 5'PFS UAC 3'PFS UUG (mixed)
RNA 1: B1 RNA 1
RNA 2: B1 RNA 2 with C27U, U28A, U29C, C52U, A53U
B39: target 1 MT 5'PFS CUA 3'PFS UUC (mixed)
RNA 1: B1 RNA 1
RNA 2: B1 RNA 2 with U29A, C52U, A53U, G54C
B40: target 1 MT 5'PFS CUA 3'PFS UUG (mixed)
RNA 1: B1 RNA 1
RNA 2: B1 RNA 2 with U29A, C52U, A53U

target: T1, EsCas13d, nuclease-dead; experiment: crRNA (strand 1, pre-loaded); Mg2+; 40 mM Tris-HCl pH 7.5, 150 mM NaCl, 6 mM MgCl2, 1 mM DTT, 0.1% Tween-20, 0.2 mg/ml BSA; 25 C; 10 min per concentration, then washed; details: tags: His6-TwinStrep-SUMO cleaved; N-terminal SNAP kept (SNAP-Surface 488); label: 3' end held by stalled T7 RNA polymerase

Row | Binder | Kd [nM]
1 | B1 | 74 ± 30
2 | B2 | ~82
3 | B3 | ~80
4 | B4 | 14.7 ± 0.7
5 | B5 | 80 ± 40
6 | B6 | 26.5 ± 4
7 | B7 | 32 ± 6.5
8 | B8 | 35.5 ± 9.5
9 | B9 | 34 ± 12.5
10 | B10 | 47.5 ± 15.5
11 | B11 | 33.5 ± 10
12 | B12 | 28.5 ± 11
13 | B13 | 20.6 ± 3.8
14 | B14 | 100 ± 40
15 | B15 | 46 ± 4
16 | B16 | 51 ± 21
17 | B17 | 22 ± 11
18 | B18 | 30.5 ± 9
19 | B19 | 12.9 ± 1.15
20 | B20 | 9.65 ± 2.55

Row | Binder | Kd [nM]
21 | B21 | 14.1 ± 1.15
22 | B22 | 11.7 ± 2.5
23 | B23 | 14.8 ± 1.45
24 | B24 | 14.3 ± 2.75
25 | B25 | 32.5 ± 9.5
26 | B26 | 12.9 ± 1.1
27 | B27 | 14 ± 0.85
28 | B28 | 24 ± 6
29 | B29 | ~31
30 | B30 | 14.2 ± 2.55
31 | B31 | 20.9 ± 4.25
32 | B32 | 29.5 ± 7.5
33 | B33 | 50 ± 18
34 | B34 | 42 ± 11
35 | B35 | ~22
36 | B36 | 27.5 ± 11
37 | B37 | 56 ± 9
38 | B38 | 7.55 ± 1.15
39 | B39 | 6.85 ± 2.1
40 | B40 | 5.7 ± 0.65

— publication PMC10786891, “Massively parallel profiling of RNA-targeting CRISPR-Cas13d”
